Results: paper PMC11630572

How the values were obtained:
[1] = target: recombinant spike ectodomain of SARS-CoV-2 Omicron subvariant JN.1 (SARS-CoV-2); assay: cryo-EM structure; complexes of BA.5 or JN.1 spike ectodomain with Nanosota-9-His (0.8 uM); three Nanosota-9 on each trimeric spike, two of them crosslinking two RBDs (2:2 mode)
[2] = target: recombinant spike ectodomain of SARS-CoV-2 Omicron subvariant BA.5 (SARS-CoV-2); assay: as above

## recombinant spike ectodomain of SARS-CoV-2 Omicron subvariant JN.1 (domain or fragment)
[1]
  stoichiometry N: 3

## recombinant spike ectodomain of SARS-CoV-2 Omicron subvariant BA.5 (domain or fragment)
[2]
  stoichiometry N: 3
